Assays:
GAA KO mice [1] = test: Tissue glycogen reduction after repeat SQ with varying 1-DNJ (Example 16); type: in vivo, mouse; conditions: Lumizyme 20 mg/kg SQ alone, 4 administrations, 14 days after last
Description: 14-week old male GAA KO mice in groups of 7 were used in the present study. Each group of mice was administered one of the following treatments:
(§1) Each of the treatments was administered to their respective treatment group for a period of 2 weeks. The treatments were administered on Monday and Thursday of each week. SQ injections were administered between the shoulder blades of each mouse receiving treatment. A total of 4 doses were administered to each study animal.
(§2) Tissue samples were collected to determine rhGAA uptake 3 days following the last dose of the study (i.e., 3 days post dose 4). Tissue samples included heart, tongue, diaphragm, triceps, quads, gastrocnemius, ventral skin and dorsal skin from the SQ injection site. Tissue samples were also collected to determine glycogen concentration 14 days following the last dose of the study (i.e., 14 days post dose 4).
FIGS. 47-54 show tissue GAA activity 3 days following the final administration, and glycogen levels 14 days following the final administration. GAA activities in tissues were determined using a 4-MUG fluorogenic substrate assay. Glycogen levels were determined using a glycogen assay (see Example 9 for method). Lumizyme® alone administered subcutaneously led to uptake of enzyme in all investigated tissues following repeat administrations.

GAA KO mice [2] = test: Tissue rhGAA activity after repeat SQ dosing between the shoulder blades (Example 13); type: in vivo, mouse; conditions: Lumizyme 20 mg/kg +/− 1-DNJ 30 mg/kg SQ, 4 doses (Mon and Thu), 3 days after last dose
Description: 12-week old male GAA KO mice in groups of 7 were used in the present study. Each group of mice was administered one of the following treatments:
(2) Lumizyme® alone (20 mg/kg) delivered subcutaneously (SQ); or
(3) Co-formulated Lumizyme® (20 mg/kg) and 1-DNJ (30 mg/kg) SQ.
as §1, with “treatments were” for “treatments was”, “doses was” for “doses were”, “animal. Diphenhydramine was administered intraperitoneally (IP) before the 3rd and 4th doses.” for “animal.”
as §2, with “heart, diaphragm,” for “heart,”, “brain, spleen, liver, biceps,” for “diaphragm,”, “quadriceps, soleus,” for “quads,”

[3] = Solubility of Lumizyme® in the presence of 1-DNJ-HCl and excipients (Example 12); type: physicochemical
Description: A vial of Lumizyme® containing 52.5 mg protein, 210 mg mannitol, 0.5 mg polysorbate 80, 9.9 mg Na2HPO4×7H2O, and 31.2 mg NaH2PO4×H2O was dissolved in a minimal volume of water (1 mL added) yielding 1.2 mL of protein solution. Five 240-μL aliquots (each containing 10.5 mg protein) were transferred to Amicon Ultra 0.5 mL 30 kDa cutoff centrifugal filter devices and centrifuged for 10 min at 14,000×g in an Eppendorf centrifuge to obtain about 50 μL of retentate.
The original excipients present in the composition, i.e., mannitol and polysorbate 80 were exchanged for new excipients to test protein solubility (keeping the same buffer conditions). The following excipient solutions were prepared for the exchange using the original phosphate buffer:
For exchanging excipients, 5.2 mg Na2HPO4 and 27.1 mg NaH2PO4 were dissolved in 10.3 mL water to prepare the washing/excipient exchange phosphate buffer of approximately 26 mM. A volume of 8 mL of the buffer for excipient exchange was supplemented with 160 mg/mL of the small molecule ligand (to prepare excipient 1, 3, 4 and 5 solutions), while 2 mL was supplemented with 32 mg/mL ligand for excipient 2 (100 mM Arginine). Each of the excipients were dissolved in 2 mL of this buffer at the concentrations listed above.
An excipient solution was added to each separate filter device to achieve a total volume of 0.5 mL. Each filter device was centrifuged for 15 min at 14,000×g in a bench top Eppendorf centrifuge to retain approximately 25 μL. The units were re-filled with the same excipient solution to 0.5 mL and centrifuged again (this process was repeated 2 times). This procedure efficiently replaced mannitol and polysorbate 80 with excipients described above, diluting the original constituents by about 1:1000. All filtrates for each excipient were collected and examined for any protein leaks through the filter.
Each centrifugal filter device was inverted in a clean tube, and the concentrated protein solution was collected from each filter device by centrifugation for 2 min at 1000×g. The volume of each sample was determined (66 μL, corresponding to a target protein concentration of 160 mg/mL), and it was confirmed that no visible precipitate was observable in each sample. Samples were transferred back to their respective filter devices and centrifuged for an additional 5 min Samples were then collected by inversion of the filters into clean tubes and centrifuging for 2 min at 1000×g to yield about 37 μL of retentate (corresponding to >280 mg/mL protein based on a total initial concentration of 10.5 mg protein).
The samples were vortexed and incubated for 1 hr at room temperature to equilibrate liquid and solid phases followed by centrifugation for 10 min at 14,000×g. Again, no visible precipitate was observed. Two-three 10 μL aliquots were taken from the supernatant of each sample (depending on available volume of the liquid phase), and diluted 1:1000 in two steps. Protein concentration was measured by UV absorbance at 280 nm, and the maximum protein solubility was calculated according to a highly reproducible calibration curve. The calibration curve was prepared by dissolving 6.8 mg of Myozyme® (alglucosidase alpha) lyophilized powder (containing 1.16 mg protein) in 1.16 mL of water followed by a serial dilution in deionized water. Absorbance was measured at 280 nm in a 1 cm light-pass quartz semi-micro cuvette using 0.5 mL aliquots.

Lumizyme®: alglucosidase alfa, recombinant human acid α-glucosidase from Genzyme Corporation
Glycogen (% Reduction) (GAA KO mice [1]; Biceps): 45% | Glycogen (% Reduction) (GAA KO mice [1]; Diaphragm): 8% | Glycogen (% Reduction) (GAA KO mice [1]; Gastrocnemius): 10% | Glycogen (% Reduction) (GAA KO mice [1]; Heart): 15% | Glycogen (% Reduction) (GAA KO mice [1]; Quadriceps): 9% | Glycogen (% Reduction) (GAA KO mice [1]; Skin): 15% | Glycogen (% Reduction) (GAA KO mice [1]; Tongue): 10% | Glycogen (% Reduction) (GAA KO mice [1]; Triceps): 64% | rhGAA activity uptake (GAA KO mice [2]; Biceps): 56.0 nmol/mg/h | rhGAA activity uptake (GAA KO mice [2]; Diaphragm): 4.2 nmol/mg/h | rhGAA activity uptake (GAA KO mice [2]; Gastrocnemius): 2.0 nmol/mg/h | rhGAA activity uptake (GAA KO mice [2]; Heart): 1.9 nmol/mg/h | rhGAA activity uptake (GAA KO mice [2]; Quadriceps): 2.1 nmol/mg/h | rhGAA activity uptake (GAA KO mice [2]; Skin): 75 nmol/mg/h | rhGAA activity uptake (GAA KO mice [2]; Soleus): 2.7 nmol/mg/h | rhGAA activity uptake (GAA KO mice [2]; Tongue): 2.7 nmol/mg/h | rhGAA activity uptake (GAA KO mice [2]; Triceps): 88.0 nmol/mg/h | Protein solubility ([3]; Arginine 100 mM, 1-DNJ-HCl 32 mg/mL): 201 mg/mL | Protein solubility ([3]; Arginine + Glutamic acid 50 mM + 50 mM, 1-DNJ-HCl 160 mg/mL): 242 mg/mL | Protein solubility ([3]; Gamma-cyclodextrin 10% (w/v), 1-DNJ-HCl 160 mg/mL): 114 mg/mL | Protein solubility ([3]; PEG400 5% (w/v), 1-DNJ-HCl 160 mg/mL): 158 mg/mL | Protein solubility ([3]; Proline 250 mM, 1-DNJ-HCl 160 mg/mL): 195 mg/mL
